{"source": "the supplement of paper PMC9732359", "note": "± gives the uncertainty stated by the source.", "data": [{"assay": "protein stability index of a GFP-peptide fusion (yeast GPS) (PSI 1-4); higher = more stable; sorted into four equal gates, so the index is relative within each strain", "details": "san1∆", "summary_of_the_method": "(§1)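 Plasmids isolated from each sorting gate were PCR-amplified and Illumina-sequenced, and barcodes assigned the reads to strains. The gates, four of equal size, were set by GFP/Cherry fluorescence ratio on mid-log cultures in leucine-free medium. These cultures were yeast carrying a pooled library of tiled 17-residue yeast protein peptides fused downstream of GFP on a plasmid that also expresses Cherry. The protein stability index is the sum of every gate's read frequency times its gate number.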", "values": [{"sequence": "NENDKIYLLFQSSGKLK [YDL116W/NUP84]", "protein stability index": "2.44 ± 0.048"}, {"sequence": "NENDLKTYNCLHEKYLT [SMC1]", "protein stability index": "2.11 ± 0.083"}, {"sequence": "NENPYNNGVSNLWKNIF [COR1]", "protein stability index": "2.01 ± 0.15"}, {"sequence": "NEPLSEIEIEGVMSLLQ [YAR002W/NUP60]", "protein stability index": "3.22 ± 0.11"}, {"sequence": "NEPSQSLISTRNDSTVN [BRN1]", "protein stability index": "3.08 ± 0.071"}, {"sequence": "NESKIKELNEKIQKLEE [RPN7]", "protein stability index": "2.26 ± 0.14"}, {"sequence": "NESWKSSFEKFNDSQAI [SRP72]", "protein stability index": "2.79 ± 0.043"}, {"sequence": "NEVKEWAVTLDTSRPDL [DSN1]", "protein stability index": "3.02 ± 0.052"}, {"sequence": "NEYVAKVSAREKSAYKF [FAS2]", "protein stability index": "3.04 ± 0.093"}, {"sequence": "NFLVFQGDVEQIAAQSP [SMC1]", "protein stability index": "2.68 ± 0.14"}, {"sequence": "NFNDIPPSVTLQDWQRE [YDL088C/ASM4]", "protein stability index": "2.44 ± 0.077"}, {"sequence": "NFNLKPTKTLTTKERKK [PRP8]", "protein stability index": "2.19 ± 0.075"}, {"sequence": "NFNSSAPIADDNHSGDA [DSN1]", "protein stability index": "2.45 ± 0.09"}, {"sequence": "NFNSSLHKRQQFSESTH [YJL039C/NUP192]", "protein stability index": "2.82 ± 0.063"}, {"sequence": "NFSNVTDLTNNSTDGAK [YIL149C/MLP2]", "protein stability index": "3.41 ± 0.035"}, {"sequence": "NGKEVPLAKIYLEENKS [MED1]", "protein stability index": "3.12 ± 0.075"}, {"sequence": "NGKTRTLENTLKAAFVA [RPS2]", "protein stability index": "3 ± 0.089"}, {"sequence": "NGNITYSEEPREKVRKL [FAS2]", "protein stability index": "3.3 ± 0.2"}, {"sequence": "NGQRSNSIRAREVENSV [SMC1]", "protein stability index": "3.36 ± 0.048"}, {"sequence": "NGQSLSPVRSDSADVPA [YMR153W/NUP53]", "protein stability index": "3.09 ± 0.11"}, {"sequence": "NGTTVWGTLQSVSPQMN [SMD1]", "protein stability index": "3.39 ± 0.19"}, {"sequence": "NGVPGQALDAVRMRLAQ [MED8]", "protein stability index": "1.25 ± 0.1"}, {"sequence": "NHITEFPSIPLPINGPI [RPC31]", "protein stability index": "2.08 ± 0.07"}, {"sequence": "NIDINNEDENIQLIKIL [YJL041W/NSP1]", "protein stability index": "2.99 ± 0.049"}, {"sequence": "NIDQEGSKQADRMAKYL [PGD1]", "protein stability index": "2.97 ± 0.087"}, {"sequence": "NIEERKEKIQHELGINI [BRR2]", "protein stability index": "3.52 ± 0.075"}, {"sequence": "NIIASPLSAGFNYGKLP [SIN4]", "protein stability index": "2.68 ± 0.048"}, {"sequence": "NINSTDKSIDTSSLQLY [YML103C/NUP188]", "protein stability index": "3.11 ± 0.049"}, {"sequence": "NIPFWKHVGFELLSMGN [SRP72]", "protein stability index": "2.01 ± 0.16"}, {"sequence": "NIPQQQQMQPPNSSANN [GAL11]", "protein stability index": "2.85 ± 0.048"}, {"sequence": "NIRNNIESQNLDLIPHS [SRB4]", "protein stability index": "2.62 ± 0.05"}, {"sequence": "NITFSEELVSLAVFLFD [YJL039C/NUP192]", "protein stability index": "1.62 ± 0.28"}, {"sequence": "NITKNLKTFNGSLALLK [POP4]", "protein stability index": "2.93 ± 0.082"}, {"sequence": "NIVQVFKKAAPSPISHV [RPB2]", "protein stability index": "2.16 ± 0.075"}, {"sequence": "NKEKSNSPTSFFDGSAS [YOR098C/NUP1]", "protein stability index": "3.02 ± 0.041"}, {"sequence": "NKFHKSIREDILECDLL [SIR2]", "protein stability index": "3 ± 0.049"}, {"sequence": "NKFMSIFLKRKDFTNKN [SRB8]", "protein stability index": "3.03 ± 0.058"}, {"sequence": "NKIMTNQINSFWSLHSS [NUT1]", "protein stability index": "2.06 ± 0.11"}, {"sequence": "NKKGRGHVKPVRCVNCS [RPS26A]", "protein stability index": "2.98 ± 0.085"}, {"sequence": "NKQYELFMKSLIENCKK [SWI1]", "protein stability index": "2.77 ± 0.046"}, {"sequence": "NKQYHQANSNLTLLERK [NUT1]", "protein stability index": "2.59 ± 0.082"}, {"sequence": "NKRWKVDIGGKQHAVLM [RRP4]", "protein stability index": "3.18 ± 0.05"}, {"sequence": "NKTSNNNNVTAVPAATP [SWI1]", "protein stability index": "2.81 ± 0.032"}, {"sequence": "NLAIVELVRLLIIDEIH [BRR2]", "protein stability index": "2.85 ± 0.088"}, {"sequence": "NLAPKLRNVFLGKCSRI [GRR1]", "protein stability index": "2.58 ± 0.041"}, {"sequence": "NLDSSITQDGKFAYKID [YMR129W/POM152]", "protein stability index": "2.26 ± 0.08"}, {"sequence": "NLEPLIAKLVAVLNVSP [NUT1]", "protein stability index": "1.69 ± 0.14"}, {"sequence": "NLERLRSDLQSKIQEIE [YIL149C/MLP2]", "protein stability index": "3.49 ± 0.073"}, {"sequence": "NLFSSTGFKGLLIELQA [SRB2]", "protein stability index": "2.92 ± 0.058"}, {"sequence": "NLGEYESAVKYALAAKD [RPN2]", "protein stability index": "2.7 ± 0.09"}]}, {"assay": "protein stability index of a GFP-peptide fusion (yeast GPS) (PSI 1-4); higher = more stable; sorted into four equal gates, so the index is relative within each strain", "details": "ubr1∆", "summary_of_the_method": "as §1", "values": [{"sequence": "MNHDPFSWGRPADSTYG [PRE4]", "protein stability index": "3.22 ± 0.052"}, {"sequence": "MNMFGGGMGGGMGGGMP [SRP54]", "protein stability index": "1.53 ± 0.18"}]}]}
